From patent US8409859B2, “Differentiation of non-embryonic stem cells to cells having a pancreatic phenotype” (Regents of the University of Minnesota, priority 2005, dated 2013) come the findings set out here.

This assay deals with rat MAPCs. Description: Cytokine mediated differentiation of rat MAPCs, Q-RT-PCR and cell survival. It counts as cell-based.

Method: For Q-RT-PCR reactions described herein, the primer sequences are presented in Tables 3-5 and the following protocols were used: RNA was extracted from the cells with the aid of the RNeasy Mini Kit (Qiagen; Valencia Calif.), followed by a DNase Treatment with DNA-Free™ (Ambion, Austin, Tex.). The RNA was reverse transcribed with TaqMan (Applied Biosystems, Foster City, Calif.; Step 1 (Incubation): 25° C., 10 min; Step 2 (RT): 48° C., 30 min; Step 3 (RT Inactivation): 95° C., 10 min).
Following reverse transcription, Quantitative Real Time PCR (Q-RT-PCR) was performed as follows: Step 1: 50° C., 2 min (Incubation); Step 2: 95° C., 10 min (Taq activation); Step 3: 95° C., 15 sec (Denaturation) followed by 60° C., 1 min (Extension) and repeat for 40 cycles; Step 4: 95° C., 15 sec (Dissociation); Step 5: 60° C., 20 sec (Melting curve); Step 6: 95° C., 15 sec.
In an initial series of studies, the effect of cell density (about 10^4-10^5 cells/cm^2), ECM component (fibronectin, collagen, matrigel) and different concentrations (10-100 ng/mL) of bFGF (10-100 ng/mL), FGF2 (10-100 ng/mL), Activin A (e.g., about 10 ng/mL to about 100 ng/mL), BMP4 (e.g., about 10 ng/mL to about 50 ng/mL), retinoic acid (about 10^−6M), EGF (e.g., about 10 to about 100 ng/mL), FGF10 (e.g., about 50 to about 150 ng/mL, including about 100 ng/mL), HGF (e.g., about 10 to about 100 ng/mL), GDF11 (e.g., about 50 to abut 150 ng/mL), cyclopamine (e.g., about 10 μM), anti-SHH antibody (Ab; e.g., about 10 μg/mL), nicotinamide (e.g., 5 μM to about 50 μM, including about 10 μM), exendin 4 (about 5 nM to about 50 nM, including about 10 nM), betacellulin (e.g., about 50 to abut 150 ng/mL) alone or in combinations of 2 or 3 and in different temporal sequences, on the induction of transcription factors, insulin, glucagon and somatostatin expression levels after 6, 12 and 18 days using Q-RT-PCR was determined.
Subsequent addition of factors believed to play a role in further proliferation and differentiation from pancreas-committed cells to mature endocrine pancreas, including EGF (e.g., about 50 ng/mL), HGF (e.g., about 50 ng/mL) and FGF10 (e.g., about 100 ng/mL), either alone or in combination was tested. […] Further optimization was obtained by adjusting the duration of the different steps along the differentiation course, as well addition of β-cellulin (50 ng/mL).

B1: GDF11: member of the BMP/TGFbeta superfamily (protein, UniProt O95390 299-407, looked up)
Growth/differentiation factor …: NLGLDCDEHSSESRCCRYPLTVDFEAFGWDWIIAPKRYKANYCSGQCEYMFMQKYPHTHLVQQANPRGSAGPCCTPTKMSPINMLYFNDKQQIIYGKIPGMVVDRCGCS
As to B1, for the setting “GDF11 added”, the “Ins1 and Ins2 mRNA levels” value is given as “a further increase”.

B2: FGF10: FGF produced by mesenchymal cells, used at about 100 ng/mL (protein, UniProt O15520 38-208, looked up)
Fibroblast growth factor 10: QALGQDMVSPEATNSSSSSFSSPSSAGRHVRSYNHLQGDVRWRKLFSFTKYFLKIEKNGKVSGTKKENCPYSILEITSVEIGVVAVKAINSNYYLAMNKKGKLYGSKEFNNDCKLKERIEENGYNTYASFNWQHNGRQMYVALNGKGAPRRGQKTRRKNTSAHFLPMVVHS
Take B2: the cell survival entry (activin-A, BMP4 and cyclopamine or anti-SHH Ab withdrawn after d6, cells then maintained with the factor) is recorded as “not”.
